What was measured:
[1] = molecular target: unmodified histone H3 N-terminal tail (residues 1 to 20) (UniProt P68431)
[2] = molecular target: H3 (3–19)_([change]-[change])-Ub_([change]) (UniProt P68431); test: crystal structure
[3] = molecular target: H3 (3–19)_([change]-[change]) (UniProt P68431); test: crystal structure

Sequence of Clr4 lysine methyltransferase (KMT) domain (residues 192 to 490) (O60016 192-490): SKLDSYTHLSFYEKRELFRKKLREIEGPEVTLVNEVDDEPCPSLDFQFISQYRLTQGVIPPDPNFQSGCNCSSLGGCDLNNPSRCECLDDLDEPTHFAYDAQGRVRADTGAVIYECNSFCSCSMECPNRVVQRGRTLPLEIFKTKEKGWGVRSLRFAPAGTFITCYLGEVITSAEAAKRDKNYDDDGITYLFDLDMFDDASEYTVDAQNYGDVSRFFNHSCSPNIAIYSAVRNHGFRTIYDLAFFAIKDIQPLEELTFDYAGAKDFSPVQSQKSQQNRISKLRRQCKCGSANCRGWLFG
Sequence of full-length Clr4 (residues 1 to 490) (O60016 whole entry, the tested form may be a part): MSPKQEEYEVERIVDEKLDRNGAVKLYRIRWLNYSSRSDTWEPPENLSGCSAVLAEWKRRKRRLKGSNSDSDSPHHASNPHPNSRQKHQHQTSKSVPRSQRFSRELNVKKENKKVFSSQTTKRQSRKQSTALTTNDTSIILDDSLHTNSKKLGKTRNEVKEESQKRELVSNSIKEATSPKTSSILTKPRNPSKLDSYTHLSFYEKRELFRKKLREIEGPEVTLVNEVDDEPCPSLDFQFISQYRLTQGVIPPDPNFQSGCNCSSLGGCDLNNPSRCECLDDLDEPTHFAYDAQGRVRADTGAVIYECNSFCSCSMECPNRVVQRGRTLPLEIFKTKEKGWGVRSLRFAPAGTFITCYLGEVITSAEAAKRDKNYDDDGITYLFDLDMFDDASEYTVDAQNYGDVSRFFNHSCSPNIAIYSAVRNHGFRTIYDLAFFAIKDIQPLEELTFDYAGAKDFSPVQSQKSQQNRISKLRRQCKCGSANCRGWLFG

Substance	Km, Michaelis-Menten kinetics of H3K9 methylation (MTase-Glo, SAH production) [1] [µM]	stoichiometry N [2]	stoichiometry N [3]
full-length Clr4 K455A/K472A (automethylation-mimicking) (from UniProt O60016 1-490) (enzyme)	26.5		
full-length Clr4 (residues 1 to 490) (from UniProt O60016 1-490) (enzyme)	75.8		
Clr4 lysine methyltransferase (KMT) domain (residues 192 to 490) (from UniProt O60016 192-490) (domain or fragment)		1	1

— article PMC12124358
